From US20120058126A1

Assays:
[1] = target: human sR3-AP (Ig domains 1-3) V175A (human) (UniProt P05187); assay: sR3-AP binding assay: conditioned medium on VEGF-CΔNΔC-coated plates, AP chemiluminescence, triplicate
[2] = target: human sR3-AP (Ig domains 1-3) P219L (human) (UniProt P05187); assay: as above
human sR3-AP (Ig domains 1-3) P219L (human), sequence (P05187 other isoform, or with tags, fused parts or gaps P219L P219L): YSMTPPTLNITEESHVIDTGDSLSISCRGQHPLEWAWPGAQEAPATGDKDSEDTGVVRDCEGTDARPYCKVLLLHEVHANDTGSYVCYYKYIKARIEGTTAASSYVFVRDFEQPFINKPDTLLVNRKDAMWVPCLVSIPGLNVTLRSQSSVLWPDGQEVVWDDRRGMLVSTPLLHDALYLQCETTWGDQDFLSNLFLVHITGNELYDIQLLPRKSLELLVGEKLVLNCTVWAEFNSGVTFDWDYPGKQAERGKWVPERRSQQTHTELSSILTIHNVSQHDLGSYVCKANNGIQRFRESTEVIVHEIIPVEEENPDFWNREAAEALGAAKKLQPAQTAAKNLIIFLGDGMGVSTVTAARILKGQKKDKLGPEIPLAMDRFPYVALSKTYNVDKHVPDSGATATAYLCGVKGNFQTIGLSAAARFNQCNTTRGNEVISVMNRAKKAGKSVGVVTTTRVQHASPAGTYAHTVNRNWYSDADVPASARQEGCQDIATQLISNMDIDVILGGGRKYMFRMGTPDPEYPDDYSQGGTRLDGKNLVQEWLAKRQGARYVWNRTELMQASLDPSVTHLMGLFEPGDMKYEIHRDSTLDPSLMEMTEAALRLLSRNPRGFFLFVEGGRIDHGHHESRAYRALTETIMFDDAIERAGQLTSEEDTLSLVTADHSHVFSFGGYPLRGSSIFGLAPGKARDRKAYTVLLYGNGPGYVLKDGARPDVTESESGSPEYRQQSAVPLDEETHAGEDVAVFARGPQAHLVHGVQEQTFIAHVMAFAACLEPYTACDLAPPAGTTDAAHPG

recombinant mature human VEGF-CΔNΔC, sequence (P49767 112-215 limits assumed, stated change not applied): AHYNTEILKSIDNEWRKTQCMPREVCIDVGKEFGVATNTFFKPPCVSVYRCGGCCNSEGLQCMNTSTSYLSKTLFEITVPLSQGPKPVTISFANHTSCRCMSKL
human sR3-AP (Ig domains 1-3) V175A (human), sequence (P05187 other isoform, or with tags, fused parts or gaps V175A V175A): as the sequence (P05187 other isoform, or with tags, fused parts or gaps P219L P219L) above, with V151A, L195P counted along it

loss of binding against wild-type human sR3-AP [1]: 50%
loss of binding against wild-type human sR3-AP [2]: 75%
Substance: recombinant mature human VEGF-CΔNΔC (from UniProt P49767 112-215) (ligand)
